Measured values taken from patent publication US20250206841A1 (ADEPT THERAPEUTICS, published 2025).
Changes are numbered by the printed parent chain.

T1: rat Trop-2 (rat, UniProt Q6P9Z6 25-270, limits assumed)
T1 sequence (looked up): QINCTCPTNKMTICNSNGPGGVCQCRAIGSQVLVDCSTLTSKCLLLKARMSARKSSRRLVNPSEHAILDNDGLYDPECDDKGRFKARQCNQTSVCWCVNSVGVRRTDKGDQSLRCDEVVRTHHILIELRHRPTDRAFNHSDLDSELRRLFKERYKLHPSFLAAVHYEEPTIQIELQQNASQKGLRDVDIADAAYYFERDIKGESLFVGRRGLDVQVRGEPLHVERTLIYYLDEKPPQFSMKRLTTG

T2: mouse Trop-2 (mouse, UniProt Q8BGV3 25-270, limits assumed)
T2 construct: also called Kactus Cat #TRP-MM121
T2 sequence (looked up): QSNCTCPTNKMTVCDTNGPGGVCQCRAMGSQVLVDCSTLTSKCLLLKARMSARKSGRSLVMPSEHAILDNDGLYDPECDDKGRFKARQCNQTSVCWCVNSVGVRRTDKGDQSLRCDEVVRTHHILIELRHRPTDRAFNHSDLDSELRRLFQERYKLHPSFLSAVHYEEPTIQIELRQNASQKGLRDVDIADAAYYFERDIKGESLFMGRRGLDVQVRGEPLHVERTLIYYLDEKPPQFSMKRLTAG

T3: human Trop-1 (EpCAM) (human, UniProt P16422 24-265, limits assumed)
T3 sequence (looked up): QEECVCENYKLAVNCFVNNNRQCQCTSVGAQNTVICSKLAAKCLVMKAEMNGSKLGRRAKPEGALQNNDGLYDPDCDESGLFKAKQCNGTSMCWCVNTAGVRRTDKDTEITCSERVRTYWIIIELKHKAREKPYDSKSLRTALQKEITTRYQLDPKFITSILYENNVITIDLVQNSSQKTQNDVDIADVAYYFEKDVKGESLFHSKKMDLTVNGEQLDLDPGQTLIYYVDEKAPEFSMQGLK

T4: human Trop-2-His protein (human, UniProt P09758 27-274)
T4 construct: extracellular domain; Assay paragraphs say only 'Trop-2-His'; also called hTrop-2; Kactus Cat #TRP-HM121; not shown: His tag
T4 sequence (looked up): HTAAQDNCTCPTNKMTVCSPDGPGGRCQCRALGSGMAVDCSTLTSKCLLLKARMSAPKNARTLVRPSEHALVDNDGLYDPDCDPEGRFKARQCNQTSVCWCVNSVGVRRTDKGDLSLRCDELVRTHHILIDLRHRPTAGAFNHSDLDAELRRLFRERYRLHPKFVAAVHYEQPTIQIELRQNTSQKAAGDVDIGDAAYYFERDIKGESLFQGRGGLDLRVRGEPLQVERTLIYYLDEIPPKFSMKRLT

B1: 9D7 (antibody, V domains shown)
VH: QSLEESGGDLVQPGASLTLTCKASGFDLNNYSILWVRQAPGKGLEWIGCIYISGGSTYYANWAKGRFAISKTSSTTVTLQMTSLTAADTATYFCARDDGTASYYLNLWGPGTLVTVSS
VL: YDMTQTPASVSEPVGGTVTIKCQASEDIYKLLAWYQQKPGQPPKLLIYAASDLESGVPSRFKGRGSGTDYTLTISDLECADAATYYCQQAYTIGNIDNSFGGGTEVVVK
notes: Rabbit-derived clone; LEM construct: VH + rabbit IgG CH1 + human IgG1 CH2-CH3
B2: 9D7-2 (antibody, V domains shown)
VH: B1 VH with C49S
VL: B1 VL with C79A
B3: 10A9-2 (antibody, V domains shown)
VH: B1 VH with S32A, I33M, C49S, S56T, Y59F, N61S, K64T, A101T
VL: B1 VL with E12A, P13A, K30S, A49G, D52N, R64S, D69E, C79A, A80D, S99A
B4: 1D10 (antibody, V domains shown)
VH: QEQLKESGGGLVQPGGSLTLSCKASGFDFNYYGVSWVRQAPGKGLEWIGYIYPAYHNTYYATWVNGRFTISSHNAQNTLYLQLNTLTAADTATYFCARDAGSTDYNLNLWGPGTLVTVSS
VL: DVVMTQTPASVEVAVGGTVTIKCQASEDIESYLAWYQQKPGQPPRLLIYEASKLASGVSSRFSGGGYGTDFTLTISGVECADAATYYCHQALTIGNVDNPFGGGGEVVVK
notes: as for B1
B5: 72F12 (antibody, V domains shown)
VH: B4 VH with T19K, Y31N, G49A, Y55F, T85S, T103V, L107F
VL: DVVMTQTPASVEVAVGGTVTIKCQASKNIDSNLAWYQQKPGQPPKQLIYAASTLASGVSSRFSGSGYGAEFTLTISGVECADAATYYCQQALTIGNVDNPFGGGSEVVVK
notes: as for B1
B6: 74F11/15F5 (antibody, human IgG1, V domains shown)
VH: QEQLKESGGGLVQPGGSLKLSCKASGFDFNNYGMSWVRQAPGKGLEWIAYIYPAFHNTYYANWVNGRFTISSDNAQNTVDLQLNSLTAADTATYFCARDAGSTDYNFNLWGPGTLVTVSS
VL: B4 VL with V13A, S31R, R45K, A55P, G65S, D70E, H89Q, N96Y, G105S
notes: LEM construct: VH + rabbit IgG CH1 + human IgG1 CH2-CH3
B7: 62E3 (antibody, V domains shown)
VH: B4 VH with T19K, Y31E, G49A, Y55F, S102T, L107F
VL: B4 VL with P8A, A9S, S10P, E12S, V13A, R45K, G65S, D70E, H89Q, G105S
notes: as for B1
B8: 9F7 (antibody, V domains shown)
VH: B4 VH with Y31N, A100T, L107F
VL: B4 VL with R45K, D70E, H89Q, I94V, G105S
notes: as for B1
B9: 5D4-1 (antibody, V domains shown)
VH: QQLEESGGGLVKPEGSLTLTCKGSGFDFSGTYWMWWVRQAPGKGLEWIAPIYVGSGSSTYYASWAKGRFTISSTSSTAVTLQATSLTAADTATYFCARGATNNVFMNYFNLWGPGTLVTVSS
VL: FEMTQTPSSVSEPVGGTVTIKCQASEDISSNLGWYQQKPGQPPKLLIYGASTLASGVPSRFKGSGSGTEFTLTISDLEPADAATYYCQTSYYIDDGVNGFGGGTEVVVK
B10: 5D4-2 (antibody, V domains shown)
VH: B9 VH with P50S
VL: B9 VL with P79A

biological target: T1, rat Trop-2; experiment: ELISA, similar to Table 24
Description: (§1) Purified antibodies were tested by ELISA to confirm their binding and affinity against human and cynomolgus Trop-2-His protein. Briefly, 96-well Maxisorp plates (Nunc) were coated with 100 μl/well of 0.5 μg/ml human (Kactus Cat #TRP-HM121, or Sino Biological, Cat #10428-HO8H) or cynomolgus Trop-2 protein (Kactus Cat #TRP-CM121, or Sino Biological, Cat #90893-CO8H) diluted in 1×PBS (GIBCO) overnight at 4° C. Plates were washed four times with 300 μl/well washing buffer (1×PBST, diluted from 20×PBST (Thermo Scientific) with distilled water)) and then blocked with 300 μl/well of blocking buffer (1×PBST/3% BSA (BSA, Sigma)) for 2 hours at RT on plate shaker at 100 rpm. Plates were washed and added with 100 μl/well of testing antibodies, which were serial diluted with assay buffer (PBST/1% BSA). The antibodies were incubated at room temperature for 2 hours on plate shaker at 100 rpm. Plates were washed. One hundred microliters (100 μl) of 1:10,000 diluted horseradish peroxidase (HRP) conjugated anti-hIgG antibody (Jackson Immuno Research) was added into each well and incubated at room temperature for 1 hour on plate shaker at 100 rpm. Plates were washed and added with 100 μl/well TMB substrate for color development in dark at room temperature for up to 10 minutes. After addition of 50 μl/well of stop solution (1N H₂SO₄), plates were read at 450 nm on a plate reader (SpectraMax M5). EC₅₀ values were calculated using Graphpad Prism. Sacituzumab govitecan, was used as positive control. Anti-HEL.hIgG1 was used as isotype control.
(§2) Similar assays were performed to test whether the exemplary antibodies of the present disclosure bind to human Trop-1 (EpCAM) or mouse Trop-2 (Kactus, Cat #TRP-MM121) or rat Trop-2 (kactus, Cat #TRP_RM121). No binding of the exemplary antibodies of the present disclosure to human Trop-1 (EpCAM) or mouse or rat Trop-2 has been detected.

Binder | binding result
B1 | no binding
B2 | no binding
B3 | no binding
B4 | no binding
B5 | no binding
B6 | no binding
B7 | no binding
B8 | no binding
B9 | no binding
B10 | no binding

biological target: T2, mouse Trop-2; experiment: ELISA, similar to Table 24
Description: as §1, §2

Binder | binding result
B1 | no binding
B2 | no binding
B3 | no binding
B4 | no binding
B5 | no binding
B6 | no binding
B7 | no binding
B8 | no binding
B9 | no binding
B10 | no binding

biological target: T3, human Trop-1 (EpCAM); experiment: ELISA, similar to Table 24
Description: as §1, §2

Binder | binding result
B1 | no binding
B2 | no binding
B3 | no binding
B4 | no binding
B5 | no binding
B6 | no binding
B7 | no binding
B8 | no binding
B9 | no binding
B10 | no binding

biological target: T4, human Trop-2-His protein; experiment: BLI (Gator Prime), LEM supernatant Ab on HFC probe
Description: After three times of regeneration and neutralization of HFC probe (Gator, Cat #160003), LEM transfection supernatant samples to be tested in K buffer was diluted 1:1 in K buffer and immobilized onto HFC probe. […] The association and dissociation of human or cynomolgus Trop-2-His antigen from antibody was measured on BLI machine Gator Prime. Affinity was calculated using Gator Bio analysis software. Blank control was used for reference subtraction. 1 μg/ml of Sacituzumab govitecan was used as positive control.
Table 23 below summarizes the binding affinity of exemplary anti-Trop-2 antibodies in LEM transfection supernatant samples to human and cynomolgus Trop-2 using Gator.

Binder | Kd | koff | kon
B1 | 0.113 nM | 3.9e-05 s⁻¹ | 342000 M⁻¹ s⁻¹
B4 | 0.53 nM | 0.00027 s⁻¹ | 518000 M⁻¹ s⁻¹
B5 | 0.574 nM | 0.00038 s⁻¹ | 666000 M⁻¹ s⁻¹
B6 | 0.323 nM | 0.00017 s⁻¹ | 526000 M⁻¹ s⁻¹
B7 | 0.623 nM | 0.00038 s⁻¹ | 607000 M⁻¹ s⁻¹
B8 | 0.11 nM | 5.8e-05 s⁻¹ | 530000 M⁻¹ s⁻¹

biological target: T4, human Trop-2-His protein; experiment: BLI (Gator Plus), purified Ab on HFC probe
Description: The affinity of the binding of the exemplary anti-Trop-2 antibodies of the present disclosure were determined. Assay was performed using Gator Plus according to the protocol recommended by Gator Bio Inc.. Briefly, human Trop-2-His (Kactus) was 1:4 fold serially diluted starting at 1 μg/ml. After three times of regeneration and neutralization of HFC probe, 1 μg/ml of antibody to be tested in Q buffer was immobilized onto HFC probe. […] The association and dissociation of human Trop-2-His antigen from antibody was measured on BLI machine Gator Plus. Affinity was calculated using Gator Bio analysis software. Blank control was used for reference subtraction. Sacituzumab govitecan was used as positive control.

Binder | Kd | koff | kon
B1 | < 0.002 nM | < 1e-06 s⁻¹ | 432000 M⁻¹ s⁻¹
B2 | 2.86 nM | 0.00126 s⁻¹ | 438000 M⁻¹ s⁻¹
B3 | 2.66 nM | 0.00089 s⁻¹ | 335000 M⁻¹ s⁻¹
B4 | 0.22 nM | 0.000131 s⁻¹ | 604000 M⁻¹ s⁻¹
B5 | 0.63 nM | 0.000541 s⁻¹ | 865000 M⁻¹ s⁻¹
B6 | 0.01 nM | 9e-06 s⁻¹ | 707000 M⁻¹ s⁻¹
B7 | 0.59 nM | 0.000429 s⁻¹ | 726000 M⁻¹ s⁻¹
B8 | 0.04 nM | 2.8e-05 s⁻¹ | 634000 M⁻¹ s⁻¹
B9 | 0.1 nM | 5.1e-05 s⁻¹ | 489000 M⁻¹ s⁻¹
B10 | 0.12 nM | 6e-05 s⁻¹ | 487000 M⁻¹ s⁻¹
